The target in this assay is RT1.D (rat MHC class II molecule) (rat). Nature of the assay: cell-based or functional assay.

Substance Ox-17 (anti-RT1.D antibody) had an inhibition of proliferation of PI-specific T cells to 20 ug/ml PI peptide of 22 to 25%.

These data come from patent US6509165.
